Test results taken from patent US20090192289A1 (Genentech, published 2009).
Where no end group is shown, it is not given here.

T1: GST-Omi PDZ fusion protein (human, UniProt O43464 359-458)
T1 construct: also called GST-hOmiPDZ; hOmi PDZ domain; not shown: glutathione S-transferase (GST) encoded by plasmid pGEX6P-3
T1 sequence: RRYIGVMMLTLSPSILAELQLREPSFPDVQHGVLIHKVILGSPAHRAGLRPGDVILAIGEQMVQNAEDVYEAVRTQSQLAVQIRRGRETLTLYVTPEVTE

B1: libN phage-displayed peptide WEWIGMEWG (peptide)
chain: WEWIGMEWG
modifications: not fully specified (C-terminus)
notes: 31 siblings; not shown: M13 gene-8 major coat protein (P8)
B2: libC phage-displayed peptide SEQ ID NO:34 (peptide)
chain: FLGFLEFFWI
modifications: not fully specified
notes: not shown: M13 gene-8 major coat protein (P8)
B3: libC phage-displayed peptide SEQ ID NO:30 (peptide)
chain: SSFFRFWFV
modifications: not fully specified
notes: as for B2
B4: libC phage-displayed peptide SEQ ID NO:44 (peptide)
chain: TVHSWFLWFV
modifications: not fully specified (N-terminus)
notes: as for B2
B5: libC phage-displayed peptide SEQ ID NO:41 (peptide)
chain: TGMSWTIWFL
modifications: not fully specified (N-terminus)
notes: as for B2
B6: libC phage-displayed peptide SEQ ID NO:33 (peptide)
chain: LYSIYRFFWA
modifications: not fully specified
notes: as for B2
B7: libN phage-displayed peptide SEQ ID NO:49 (peptide)
chain: SHWWGGWLG
modifications: not fully specified (C-terminus)
notes: 17 siblings; not shown: M13 gene-8 major coat protein (P8)
B8: libC phage-displayed peptide SEQ ID NO:45 (peptide)
chain: WVDSCPIFWV
modifications: not fully specified (N-terminus)
notes: as for B2
B9: libC phage-displayed peptide SEQ ID NO:32 (peptide)
chain: YPTYWTFWWV
modifications: not fully specified
notes: as for B2
B10: libC phage-displayed peptide SEQ ID NO:28 (peptide)
chain: DSLLFDFWWA
modifications: not fully specified
notes: as for B2
B11: libC phage-displayed peptide SEQ ID NO:43 (peptide)
chain: GLMPLLFFWV
modifications: not fully specified (N-terminus)
notes: as for B2
B12: libC phage-displayed peptide SEQ ID NO:36 (peptide)
chain: TMSDWLFWWA
modifications: not fully specified (N-terminus)
notes: as for B2
B13: libC phage-displayed peptide SEQ ID NO:46 (peptide)
chain: IPLHWIFYLV
modifications: not fully specified (N-terminus)
notes: as for B2
B14: libC phage-displayed peptide SEQ ID NO:42 (peptide)
chain: SLLNWVLYLV
modifications: not fully specified (N-terminus)
notes: as for B2
B15: libC phage-displayed peptide SEQ ID NO:31 (peptide)
chain: DRLNWLFFWI
modifications: not fully specified
notes: as for B2
B16: libC phage-displayed peptide SEQ ID NO:38 (peptide)
chain: TRANWLFFWV
modifications: not fully specified (N-terminus)
notes: as for B2
B17: libC phage-displayed peptide SEQ ID NO:39 (peptide)
chain: RIPFLFFLWA
modifications: not fully specified (N-terminus)
notes: as for B2
B18: libC phage-displayed peptide WLDRFPHFWV (peptide)
chain: WLDRFPHFWV
modifications: not fully specified (N-terminus)
notes: 15 siblings; not shown: M13 gene-8 major coat protein (P8)
B19: libC phage-displayed peptide KVASWTMFWV (peptide)
chain: KVASWTMFWV
modifications: not fully specified
notes: 42 siblings; not shown: M13 gene-8 major coat protein (P8)
B20: libC phage-displayed peptide SEQ ID NO:40 (peptide)
chain: SKLRLFFMWV
modifications: not fully specified (N-terminus)
notes: as for B2
B21: libC phage-displayed peptide SEQ ID NO:35 (peptide)
chain: SFYILRYFWV
modifications: not fully specified
notes: as for B2
B22: libC phage-displayed peptide SEQ ID NO:27 (peptide)
chain: PGRWGPFFWV
modifications: not fully specified
notes: as for B2
B23: libC phage-displayed peptide SEQ ID NO:29 (peptide)
chain: NQRVWIFWLI
modifications: not fully specified
notes: as for B2

Target: T1, GST-Omi PDZ fusion protein
Assay: phage ELISA on GST-Omi PDZ after three rounds of selection
Procedure: Selection for Omi PDZ peptides—Previously described procedures were used to isolate peptides that bound to a GST-Omi PDZ fusion, using libraries of random decapeptides fused to either the C terminus(18) or octapeptide fused to the N terminus(19) of the M13 gene-8 major coat protein, designated as libC or libN, respectively. After three rounds of selection, individual clones were grown in a 96-well format in 500 μL of 2YT broth supplemented with carbenicillin, kanamycin and KO7, and the culture supernatants were used directly in phage ELISAs(19) to detect peptides that bound specifically to Omi PDZ. Peptide sequences derived from positive clones were aligned and tabulated. A total of 95 positive colonies from libC and 89 from libN were analyzed. (see Table II). […] The sequences were selected after three rounds of sorting with IPTG induction. Hydrophobic residues (A, F, I, L, M, V, W, Y) are italicized and bolded, n is the number of siblings.

Binder	binding result
B1	binds
B2	binds
B3	binds
B4	binds
B5	binds
B6	binds
B7	binds
B8	binds
B9	binds
B10	binds
B11	binds
B12	binds
B13	binds
B14	binds
B15	binds
B16	binds
B17	binds
B18	binds
B19	binds
B20	binds
B21	binds
B22	binds
B23	binds
